Blank lines part the entries; values can stand above or below the molecule they belong to.
Key:
[1] = biological target: Human PP1g (catalytic subunit of protein phosphatase 1), bacterially expressed (human) (UniProt P36873)
[2] = biological target: PP1g (catalytic subunit of protein phosphatase 1); assay: Protein phosphatase assay: phosphorylase phosphatase activity of PP1; type: biochemical, human; settings: freshly prepared preparation; 32P-labelled phosphorylase as substrate; preincubated 15 minutes at 30° C.; FIG. 3; read-out: IC50 for inhibition of the phosphorylase phosphatase activity of PP1
Description: Protein phosphatase assays were performed in the absence of divalent cations as described in Cohen et al, (1988), cited above. The catalytic subunit PP1g, described above in Example 2, was diluted in assay buffer to 1.5 U/ml (1.4 nM). Rabbit skeletal muscle glycogen phosphorylase was ^32 P-labelled by phosphorylase kinase to a stoichiometry of 1 mol phosphate per mol subunit as in Cohen et al, Meth. Enzymol. 159:390-408 (1988) and was 10 mM in the assays.
Assays were initiated with 0.01 ml ^32 P-labelled phosphorylase. One unit of activity is the amount of enzyme which catalyses the release of 1 mmol of [^32 P]phosphate per minute.

phosphorylase a = assay: Blot overlay with 32P labelled phosphorylase a; type: binding; settings: proteins electrophoresed, transferred to nitrocellulose, probed with 32P labelled phosphorylase a; blot not shown

- IC50, inhibition of phosphorylase phosphatase activity of PP1 [1]: 100 nM
Molecule: GST-GL fusion protein

- IC50, inhibition of phosphorylase phosphatase activity of PP1 [1]: 100 nM
Molecule: GST-PPP1R5 fusion protein

- IC50 [2]: ~100 nM
- Binding of phosphorylase a (phosphorylase a): bound
B1: GST-GL: GST fusion protein of the rat liver glycogen binding subunit (GL) of protein phosphatase 1, bacterially expressed (protein)
chain: MAVDIEYSYSSMAPSLRRERFTFKISPKLNKPLRPCIQLGSKDEAGRMVAPTVQEKKVKKRVSFADNQGLALTMVKVFSEFDDPLDIPFNITELLDNIVSLTTAESESFVLDFPQPSADYLDFRNRLQTNHVCLENCVLKEKAIAGTVKVQNLAFEKVVKIRMTFDTWKSFTDFPCQYVKDTYAGSDRDTFSFDISLPEKIQSYERMEFAVCYECNGQSYWDSNKGKNYRITRAELRSTQGMTEPYNGPDFGISFDQFGSPRCSFGLFPEWPSYLGYEKLGPYY

— patent US5939284A, “Protein phosphatase 1 binding protein, R5” (Smithkline Beecham Corporation, priority 1996, dated 1999)
